Experiment [1] relates to Caco-2 intestinal epithelial cells. Description: IL-8 secretion by Caco-2 cells (Luminex-100). It counts as cell-based, human. As to conditions: 18 hours. The procedure: TNFα (100 ng/ml; dark grey bar) served as a positive control. Following incubation for 18 hours, culture supernatants were analyzed for IL-8 using the Luminex-100 system in duplicate. Data represent mean and standard deviation of three individual experiments.
No peptides (c) and TNFα alone (dark grey bar) served as controls. Following incubation for 18 hours, culture supernatants were analyzed for IL-8 using the Luminex-100 system in duplicate. Data represent mean and standard deviation of three individual experiments.
Subconfluent monolayers of Caco-2 cells were maintained in RPMI 1640 medium (Gibco), supplemented with 10% FBS (Valley Biomedical, Winchester, Va.), 2 mM L-glutamine (Quality Biological, Gaithersburg, Md.), 20 mM HEPES, 1× nonessential amino acids, 1 mM sodium pyruvate and 5% Penicillin/Streptomycin (Sigma) in a humidified incubator at 37° C. with 5% CO2. Caco-2 cells were used between passages 35-42. Caco-2 cells were plated at a density of 4×10^4 cells/cm^2 in a 96-well plate 48 hours before use. The cells were gently washed twice with serum-free medium and incubated for a further 18 hours in serum-free medium containing the peptides at a final concentration of 50 or 100 ug/ml. Human recombinant tumor necrosis factor alpha (Sigma; 100 ng/ml) was included during incubation with the peptides (100 ug/ml) as indicated. The culture supernatant was collected for measurement of IL-8 using the Luminex-100 system (Bio-rad Laboratories).

Experiment [2] concerns the target Fibronectin (human plasma). Kind of experiment: Surface plasmon resonance (BIAcore 3000), immobilized SlpA binding to fibronectin. As for the experimental part:
(§1) The interaction between SlpA and extracellular matrix components was evaluated by surface plasmon resonance on a BIAcore 3000 instrument. Purified SlpA protein in 5M LiCl was dialyzed against double-distilled water overnight. Monomeric and/or oligomeric protein was separated from self-assembled material by centrifugation at 20,000×g for 20 min. SlpA protein (50 ug/ml in 10 mM Sodium Phosphate pH 7.4) was covalently coupled to CM5 carboxylated dextran chips using N-hydroxysuccinimide (NHS) chemistry. Uncoupled NHS-ester groups were blocked with 1M Ethanolamine, resulting in the coupling of about 1700 resonance units (RU's) to the chip. Kinetic analysis was carried out at 25° C. in 10 mM HEPES, 150 mM NaCl, 3 mM EDTA, 0.005% surfactant P20, pH 7.4. Fibronectin, laminin, fibrinogen and collagen were treated according to manufacturer's instructions and injected at indicated concentrations at a flow rate of 20 ul/min over each flow cell. Binding was determined experimentally by comparing the number of RU's observed as a function of time to an activated and blocked flow cell containing no linked protein. Non-specific binding to the control flow cell appeared insignificant. Data were evaluated using the BIAevaluation 4.1 software. The association and dissociation data were modeled with the BIAevaluation 4.1 software (Pharmacia Biosensor AB). Following subtraction of data from the control flow cell, the binding data produced for the various protein concentrations were fitted simultaneously, assuming the 1:1 Langmuir model. The equilibrium constant for the fibronectin+benzamidine experiment was calculated using steady-state kinetics.
(§2) To examine the binding properties of SlpA to the extracellular matrix proteins fibronectin, laminin, fibrinogen and collagen in detail, surface plasmon resonance was used. […] The association and dissociation rate constants were estimated from the binding data at different concentrations using the BIAevaluation software and from these values the binding constant was calculated (Table 2). […] In addition, the interaction between SlpA and the ECN components fibrinogen and collagen was studied.
In general terms: In SPR one partner is held on a chip, and binding of the other changes the refractive index at the surface.

In experiment [3] the target is T1, Laminin (basement membrane of Engelbreth-Holm-Swarm mouse sarcoma) (Mus musculus, UniProt P02468+P02469+P19137).
T1 construct: Laminin (basement membrane of Engelbreth-Holm-Swarm mouse sarcoma); purchased Sigma; host or cells: Engelbreth-Holm-Swarm mouse sarcoma basement membrane
Kind of experiment: Surface plasmon resonance (BIAcore 3000), immobilized SlpA binding to laminin. As for the experimental part: as §1, §2

Experiment [4] has as its target T2, Collagen (human placenta Type IV) (Homo sapiens, UniProt P02462+P08572).
T2 construct: purchased Sigma; host or cells: human placenta
Description: Surface plasmon resonance (BIAcore 3000), immobilized SlpA binding to collagen. The procedure:
as §1, §2

Experiment [5] has as its target T3, Fibrinogen (human plasma) (Homo sapiens, UniProt P02671+P02675+P02679).
T3 construct: Fibrinogen (human plasma) was obtained from Calbiochem; purchased Calbiochem; host or cells: human plasma
T3 sequence (P02671 20-644 isoform P02671-2 limits assumed): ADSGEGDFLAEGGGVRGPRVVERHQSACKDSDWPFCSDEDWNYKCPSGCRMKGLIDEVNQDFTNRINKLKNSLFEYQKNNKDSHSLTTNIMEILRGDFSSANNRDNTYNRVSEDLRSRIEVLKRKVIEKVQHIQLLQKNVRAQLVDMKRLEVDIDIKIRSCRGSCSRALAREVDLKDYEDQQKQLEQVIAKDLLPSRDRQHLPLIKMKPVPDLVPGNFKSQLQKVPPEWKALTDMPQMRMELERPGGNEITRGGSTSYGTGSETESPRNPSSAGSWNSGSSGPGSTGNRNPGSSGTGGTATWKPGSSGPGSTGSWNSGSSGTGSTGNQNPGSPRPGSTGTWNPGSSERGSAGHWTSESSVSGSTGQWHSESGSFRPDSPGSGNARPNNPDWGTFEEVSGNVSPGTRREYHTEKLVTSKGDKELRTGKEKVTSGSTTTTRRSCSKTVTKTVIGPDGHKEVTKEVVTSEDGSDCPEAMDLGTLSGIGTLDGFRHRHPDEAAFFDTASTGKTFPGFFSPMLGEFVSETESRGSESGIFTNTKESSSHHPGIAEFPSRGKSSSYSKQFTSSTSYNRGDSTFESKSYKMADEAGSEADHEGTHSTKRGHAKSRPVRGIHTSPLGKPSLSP
T3 sequence (P02675 31-491): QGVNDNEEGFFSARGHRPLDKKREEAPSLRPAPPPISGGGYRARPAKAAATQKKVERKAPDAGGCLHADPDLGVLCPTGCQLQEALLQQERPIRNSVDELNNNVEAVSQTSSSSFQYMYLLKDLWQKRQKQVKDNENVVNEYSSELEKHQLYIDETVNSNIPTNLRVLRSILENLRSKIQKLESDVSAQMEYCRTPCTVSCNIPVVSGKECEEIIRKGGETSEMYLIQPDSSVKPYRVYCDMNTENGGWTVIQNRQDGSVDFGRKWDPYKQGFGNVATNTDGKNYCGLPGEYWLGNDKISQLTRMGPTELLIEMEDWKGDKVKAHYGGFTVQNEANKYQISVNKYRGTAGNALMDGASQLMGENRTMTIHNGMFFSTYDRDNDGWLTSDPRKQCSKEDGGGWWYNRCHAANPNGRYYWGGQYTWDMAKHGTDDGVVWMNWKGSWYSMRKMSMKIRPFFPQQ
T3 sequence (P02679 27-437 isoform P02679-2 limits assumed): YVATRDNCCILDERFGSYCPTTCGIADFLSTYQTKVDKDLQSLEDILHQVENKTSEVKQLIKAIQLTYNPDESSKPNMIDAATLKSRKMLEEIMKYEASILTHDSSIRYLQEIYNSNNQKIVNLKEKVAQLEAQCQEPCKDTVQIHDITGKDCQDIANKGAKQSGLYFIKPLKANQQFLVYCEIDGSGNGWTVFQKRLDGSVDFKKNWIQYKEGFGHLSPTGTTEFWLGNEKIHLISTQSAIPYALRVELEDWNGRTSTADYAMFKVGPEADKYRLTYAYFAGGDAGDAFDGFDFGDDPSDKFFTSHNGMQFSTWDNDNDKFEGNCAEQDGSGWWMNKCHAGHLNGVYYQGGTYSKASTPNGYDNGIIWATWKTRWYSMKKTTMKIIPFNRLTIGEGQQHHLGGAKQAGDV
Description: Surface plasmon resonance (BIAcore 3000), immobilized SlpA binding to fibrinogen. As to conditions: from binding constants. The procedure: The interaction between SlpA and extracellular matrix components was evaluated by surface plasmon resonance on a BIAcore 3000 instrument. Purified SlpA protein in 5M LiCl was dialyzed against double-distilled water overnight. Monomeric and/or oligomeric protein was separated from self-assembled material by centrifugation at 20,000×g for 20 min. SlpA protein (50 ug/ml in 10 mM Sodium Phosphate pH 7.4) was covalently coupled to CM5 carboxylated dextran chips using N-hydroxysuccinimide (NHS) chemistry. Uncoupled NHS-ester groups were blocked with 1M Ethanolamine, resulting in the coupling of about 1700 resonance units (RU's) to the chip. […] Binding was determined experimentally by comparing the number of RU's observed as a function of time to an activated and blocked flow cell containing no linked protein. […] Data were evaluated using the BIAevaluation 4.1 software. […] The equilibrium constant for the fibronectin+benzamidine experiment was calculated using steady-state kinetics.
To examine the binding properties of SlpA to the extracellular matrix proteins fibronectin, laminin, fibrinogen and collagen in detail, surface plasmon resonance was used. […] The association and dissociation rate constants were estimated from the binding data at different concentrations using the BIAevaluation software and from these values the binding constant was calculated (Table 2). […]

The subject of another experiment is E. coli ATCC 25922. Kind of experiment: Antibacterial activity, 96-well turbidimetric assay, E. coli. Format: cell-based, Escherichia coli. The procedure:
(§3) Strains were exposed to the peptides at concentrations varying twofold from 0.12 to 125 μg/ml. (B) Strains were exposed to fixed peptide concentrations (100 ug/ml for E. coli; 50 ug/ml for S. aureus) in the absence or presence of the indicated concentrations of sodium chloride. Each curve is the mean of three separate experiments. Points scored as zero survival could not be plotted.
(§4) The antibacterial activity of HD-5 and HD-5Abu against E. coli ATCC 25922 and S. aureus ATCC 29213 was carried out in a 96-well turbidimetric assay as described previously.

In the next experiment the test system is S. aureus ATCC 29213. Description: Antibacterial activity, 96-well turbidimetric assay, S. aureus. Format: cell-based, Staphylococcus aureus. As for the experimental part:
as §3, §4

The mark [6] stands for this setting: fibronectin to immobilized SlpA.
Setting [7] is: peptide 0.12 to 125 μg/ml, 2 hour incubation.

Where “and” joins values, the source holds several entries; their conditions need not be identical. Identical values can stand only once.

T2 sequence (P02462 173-1669): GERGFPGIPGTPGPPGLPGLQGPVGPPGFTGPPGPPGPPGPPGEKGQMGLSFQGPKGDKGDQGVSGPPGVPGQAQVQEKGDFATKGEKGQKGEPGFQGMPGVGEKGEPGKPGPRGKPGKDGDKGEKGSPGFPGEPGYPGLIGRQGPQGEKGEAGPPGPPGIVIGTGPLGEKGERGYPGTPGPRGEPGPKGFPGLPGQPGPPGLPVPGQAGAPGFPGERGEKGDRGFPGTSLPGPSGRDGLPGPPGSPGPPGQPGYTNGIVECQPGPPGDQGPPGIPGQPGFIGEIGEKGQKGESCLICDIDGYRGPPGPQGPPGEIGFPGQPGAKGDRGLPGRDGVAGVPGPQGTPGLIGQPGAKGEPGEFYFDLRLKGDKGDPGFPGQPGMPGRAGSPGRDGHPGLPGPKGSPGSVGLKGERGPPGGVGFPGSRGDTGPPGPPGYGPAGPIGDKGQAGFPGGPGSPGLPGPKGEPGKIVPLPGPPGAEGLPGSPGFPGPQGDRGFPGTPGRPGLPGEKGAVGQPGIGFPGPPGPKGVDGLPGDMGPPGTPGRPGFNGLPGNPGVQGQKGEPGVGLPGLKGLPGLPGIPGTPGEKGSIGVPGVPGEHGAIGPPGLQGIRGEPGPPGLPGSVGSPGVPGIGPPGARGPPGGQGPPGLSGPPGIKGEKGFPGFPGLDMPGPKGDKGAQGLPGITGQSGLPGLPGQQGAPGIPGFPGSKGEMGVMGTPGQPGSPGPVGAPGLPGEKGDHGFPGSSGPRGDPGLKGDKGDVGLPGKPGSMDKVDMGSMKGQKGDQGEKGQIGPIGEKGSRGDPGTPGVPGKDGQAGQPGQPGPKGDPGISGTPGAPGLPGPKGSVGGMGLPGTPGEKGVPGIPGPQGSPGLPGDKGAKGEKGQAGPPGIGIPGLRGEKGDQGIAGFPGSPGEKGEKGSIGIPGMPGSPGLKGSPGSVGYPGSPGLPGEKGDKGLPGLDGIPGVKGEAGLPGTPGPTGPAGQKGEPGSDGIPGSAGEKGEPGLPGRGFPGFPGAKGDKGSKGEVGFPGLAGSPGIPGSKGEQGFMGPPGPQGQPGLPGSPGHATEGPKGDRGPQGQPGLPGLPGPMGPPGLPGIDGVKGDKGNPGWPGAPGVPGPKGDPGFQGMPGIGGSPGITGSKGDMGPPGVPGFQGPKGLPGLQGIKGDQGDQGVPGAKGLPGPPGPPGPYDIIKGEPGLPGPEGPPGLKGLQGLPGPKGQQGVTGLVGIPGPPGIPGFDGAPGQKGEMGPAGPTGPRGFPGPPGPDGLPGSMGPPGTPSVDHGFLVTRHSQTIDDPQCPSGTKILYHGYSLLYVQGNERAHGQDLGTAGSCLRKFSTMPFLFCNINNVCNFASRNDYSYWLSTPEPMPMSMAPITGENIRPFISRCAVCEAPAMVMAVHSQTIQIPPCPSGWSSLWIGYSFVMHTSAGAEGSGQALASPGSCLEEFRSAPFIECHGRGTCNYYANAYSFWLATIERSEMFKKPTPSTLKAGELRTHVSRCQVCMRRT
T2 sequence (P08572 184-1712): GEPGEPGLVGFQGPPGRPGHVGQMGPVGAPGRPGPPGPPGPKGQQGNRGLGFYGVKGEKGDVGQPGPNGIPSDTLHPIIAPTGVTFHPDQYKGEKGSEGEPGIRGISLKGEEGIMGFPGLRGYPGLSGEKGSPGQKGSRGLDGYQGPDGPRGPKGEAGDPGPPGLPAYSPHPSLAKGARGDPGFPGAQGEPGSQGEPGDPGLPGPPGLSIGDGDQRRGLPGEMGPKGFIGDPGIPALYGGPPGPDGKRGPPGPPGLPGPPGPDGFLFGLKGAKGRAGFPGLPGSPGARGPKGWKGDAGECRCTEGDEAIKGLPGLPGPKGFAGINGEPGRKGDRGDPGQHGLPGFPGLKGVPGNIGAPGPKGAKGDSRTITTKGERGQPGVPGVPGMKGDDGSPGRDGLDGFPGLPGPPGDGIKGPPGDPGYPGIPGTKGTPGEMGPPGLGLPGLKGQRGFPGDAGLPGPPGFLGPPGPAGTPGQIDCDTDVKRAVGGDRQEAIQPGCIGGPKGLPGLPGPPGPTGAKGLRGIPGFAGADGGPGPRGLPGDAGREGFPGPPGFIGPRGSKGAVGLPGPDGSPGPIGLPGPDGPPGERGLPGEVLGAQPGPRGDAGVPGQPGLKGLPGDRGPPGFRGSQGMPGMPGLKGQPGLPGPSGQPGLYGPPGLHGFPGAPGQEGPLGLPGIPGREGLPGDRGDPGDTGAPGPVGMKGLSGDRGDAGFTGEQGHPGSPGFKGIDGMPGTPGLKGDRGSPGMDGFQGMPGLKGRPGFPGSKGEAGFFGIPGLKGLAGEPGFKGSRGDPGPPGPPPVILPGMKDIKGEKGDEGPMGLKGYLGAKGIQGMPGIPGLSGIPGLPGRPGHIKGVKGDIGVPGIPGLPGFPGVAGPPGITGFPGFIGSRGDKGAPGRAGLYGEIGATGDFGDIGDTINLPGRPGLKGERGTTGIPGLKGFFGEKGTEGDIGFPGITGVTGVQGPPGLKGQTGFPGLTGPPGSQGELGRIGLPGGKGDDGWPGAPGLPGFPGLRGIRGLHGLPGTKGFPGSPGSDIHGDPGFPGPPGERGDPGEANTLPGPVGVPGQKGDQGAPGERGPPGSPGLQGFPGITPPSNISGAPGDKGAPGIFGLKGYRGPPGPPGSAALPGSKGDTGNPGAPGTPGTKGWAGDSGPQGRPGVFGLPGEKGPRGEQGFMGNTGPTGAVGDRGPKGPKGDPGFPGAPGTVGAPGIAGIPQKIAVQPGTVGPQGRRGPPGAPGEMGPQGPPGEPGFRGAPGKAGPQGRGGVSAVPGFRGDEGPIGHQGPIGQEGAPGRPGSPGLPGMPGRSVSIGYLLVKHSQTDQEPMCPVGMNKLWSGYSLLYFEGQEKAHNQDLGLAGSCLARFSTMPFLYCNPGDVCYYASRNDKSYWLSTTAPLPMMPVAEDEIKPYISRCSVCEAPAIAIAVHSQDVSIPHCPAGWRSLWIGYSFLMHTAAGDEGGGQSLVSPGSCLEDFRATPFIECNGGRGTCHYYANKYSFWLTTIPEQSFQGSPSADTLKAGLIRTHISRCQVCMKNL

With TNFα [reference compound], the “IL-8 secretion increase relative to the control” value in experiment [1] (TNFα 100 ng/ml alone) is around 10 fold.

B1: SlpA: Surface layer (S-layer) protein purified from Lactobacillus brevis ATCC 8287 by 5M LiCl extraction and gel filtration (protein)
chain: KSYATAGAYSTLKTDAATRNVEATGTNALYTKPGTVKGAKVVASKATMAKLASSKKSADYFRAYGVKTTNRGSVYYRVVTMDGKYRGYVYGGKSDTAFAGGIKSAETTTKADMPARTTGFYLTDTSKNTLWTAPKYTQYKASKVSLYGVAKDTKFTVDQAATKTREGSLYYHVTATNGSGISGWIYAGKGFSTTATGTQVLGGLSTDKSVTATNDNSVKIVYRTTDGTQVGSNTWVTSTDGTKAGSKVSDKAADQTALEAYINANKPSGYTVTNPNAADATYGNTVYATVSQAATSKVALKVSGTPVTTALTTADANDKVAANDTTANGSSVAGSTVYAAGTKLAQLTTDLTGEKGQVVTLTAIDTDLEDATFTGTTTYYSDLGKAYHYTYTYNKDSAASSNASTQFGSNVTGTLTATLVMGKSTATANGTTWFN
For the molecule B1, the dissociation constant (Kd) (usually the free concentration of one partner at which half of the binding sites on the other are occupied at equilibrium, for simple one-to-one binding) in experiment [2] (fibronectin + benzamidine (SlpA preincubated with 1 mM benzamidine), steady-state kinetics) was 30100 nM; in experiment [2] (fibronectin to immobilized SlpA, 25° C., 1:1 Langmuir model), 89.9 nM and 89.8 nM; in experiment [4] (collagen to immobilized SlpA), 31.8 µM. The “ka × 10^3” value in experiment [2] (setting [6]) is given as 7.04 × 10^3; in experiment [3] (laminin + benzamidine (1 mM)) it was 3.03 × 10^3; in experiment [3] (laminin to immobilized SlpA), 4.89 × 10^3; in experiment [4] (collagen to immobilized SlpA) it was 3.47 × 10^3. Further, the “kd × 10^−3 (s^−1)” value in experiment [2] (setting [6]) is given as 6.32 × 10^−3 s^−1; in experiment [3] (laminin + benzamidine (1 mM)), 2 × 10^−3 s^−1; in experiment [3] (laminin to immobilized SlpA) it was 1.3 × 10^−3 s^−1; in experiment [4] (collagen to immobilized SlpA), 1.1 × 10^−3 s^−1. Besides, the “affinity of SlpA to bind laminin compared with fibronectin” value in experiment [3] (from calculated Kd values) was “three-fold higher affinity”. Besides, the “binding affinity for collagen compared with affinity for fibronectin and laminin” value in experiment [4] (from binding constants) was “three orders of magnitude less”. Further, in experiment [5], the “binding affinity for fibrinogen compared with affinity for fibronectin and laminin” value was “three orders of magnitude less”.

B2: HD-5α: human α-defensin 5, chemically synthesized and folded, three intra-molecular disulfide bonds (peptide, UniProt Q01523 20-94, looked up)
Defensin alpha 5: ESLQERADEATTQKQSGEDNQDLAISFAGNGLSALRTSGSQARATCYCRTGRCATRESLSGVCEISGRLYRLCCR
modifications: Defensin-5
notes: human α-defensin 5, chemically synthesized and folded, three intra-molecular disulfide bonds
B2: in the experiment on E. coli ATCC 25922 (peptide 100 ug/ml, 100 mM sodium chloride), the “antibacterial activity against E. coli at highest salt concentration” value is recorded as “almost completely inhibited”. For the same molecule, in the experiment on E. coli ATCC 25922 (setting [7]), the “antimicrobial activity (killing) against E. coli” value is recorded as “efficiently killed”. Besides, the “antibacterial activity against S. aureus at highest salt concentration” value in the experiment with S. aureus ATCC 29213 (peptide 50 ug/ml, 100 mM sodium chloride) is recorded as “still significantly toxic”. Further, the “antimicrobial activity (killing) against S. aureus” value in the experiment with S. aureus ATCC 29213 (setting [7]) is given as “efficiently killed”. Moreover, the “IL-8 levels increase compared to control cells” value in experiment [1] (peptide 100 ug/ml, serum-free medium) was around 10 fold. Moreover, the “induction of IL-8 secretion” value in experiment [1] (peptide 50 and 100 ug/ml) is reported as “dose-dependent”.

The values above are taken from patent publication US8895062B2, “Surface-layer protein coated microspheres and uses thereof” (University of Maryland, Baltimore, priority 2006, dated 2014).
